Assay results: the supplement of paper PMC10065799, “High-throughput profiling of sequence recognition by tyrosine kinases and SH2 domains using bacterial peptide display” (eLife, 2023)

Columns and labels:
[1] = test system: c-Src; assay: phosphorylation enrichment, bacterial display (enrichment ratio); higher = better substrate or ligand; peptides without Tyr show the background
[2] = molecular target: Jak2 (UniProt O60674); assay: as above
[3] = molecular target: Hck (UniProt P08631); assay: as above
[4] = test system: Fer (mouse); assay: as above
[5] = molecular target: FGFR1 (UniProt P11362); assay: as above
[6] = molecular target: Fyn (UniProt P06241); assay: as above
[7] = molecular target: FGFR3 (UniProt P22607); assay: as above
[8] = test system: AncSZ; assay: as above
[9] = molecular target: MERTK (UniProt Q12866); assay: as above
[10] = molecular target: Fes (UniProt P07332); assay: as above
[11] = molecular target: EPHB1 (UniProt P54762); assay: as above
[12] = molecular target: EPHB2 (UniProt P29323); assay: as above
[13] = test system: c-Abl (mouse); assay: as above
[14] = molecular target: c-Src SH2; assay: SH2 binding enrichment of the phosphorylated peptide, bacterial display (enrichment ratio); higher = better substrate or ligand; peptides without Tyr show the background
[15] = molecular target: Grb2 SH2 (UniProt P62993); assay: as above
[16] = molecular target: SHP2-C SH2; assay: as above
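Throughout, for SH2 binding enrichment of the phosphorylated peptide, bacterial display: peptide library displayed on the E. coli surface as eCPX fusions, selected cells deep-sequenced, score is each peptide's frequency after selection divided by its frequency in the input.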
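Throughout, for phosphorylation enrichment, bacterial display: 11-residue human phosphosite peptides and single-mutation variants displayed on the E. coli surface, counted by deep sequencing, each peptide's frequency after selection divided by its frequency in the unselected input library; frequency after pTyr selection over input frequency; kinase dosed for 20-30% of maximal phosphorylation in three min.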

Chain of Fyn (P06241 whole entry, looked up): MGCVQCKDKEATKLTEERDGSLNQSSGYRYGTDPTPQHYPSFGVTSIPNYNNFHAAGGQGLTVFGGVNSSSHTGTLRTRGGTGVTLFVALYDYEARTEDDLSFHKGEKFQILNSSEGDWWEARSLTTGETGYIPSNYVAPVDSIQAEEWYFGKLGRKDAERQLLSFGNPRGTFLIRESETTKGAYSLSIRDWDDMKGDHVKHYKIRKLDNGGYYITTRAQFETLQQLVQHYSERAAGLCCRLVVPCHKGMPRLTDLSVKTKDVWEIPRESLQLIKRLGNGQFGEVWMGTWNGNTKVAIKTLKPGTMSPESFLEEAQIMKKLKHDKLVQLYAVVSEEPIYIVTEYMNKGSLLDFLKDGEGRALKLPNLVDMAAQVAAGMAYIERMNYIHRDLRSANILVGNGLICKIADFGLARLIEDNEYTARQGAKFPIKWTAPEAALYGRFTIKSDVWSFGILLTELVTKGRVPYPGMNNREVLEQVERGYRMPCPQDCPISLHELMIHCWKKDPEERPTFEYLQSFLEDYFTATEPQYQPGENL
Chain of EPHB1 (P54762 whole entry, looked up): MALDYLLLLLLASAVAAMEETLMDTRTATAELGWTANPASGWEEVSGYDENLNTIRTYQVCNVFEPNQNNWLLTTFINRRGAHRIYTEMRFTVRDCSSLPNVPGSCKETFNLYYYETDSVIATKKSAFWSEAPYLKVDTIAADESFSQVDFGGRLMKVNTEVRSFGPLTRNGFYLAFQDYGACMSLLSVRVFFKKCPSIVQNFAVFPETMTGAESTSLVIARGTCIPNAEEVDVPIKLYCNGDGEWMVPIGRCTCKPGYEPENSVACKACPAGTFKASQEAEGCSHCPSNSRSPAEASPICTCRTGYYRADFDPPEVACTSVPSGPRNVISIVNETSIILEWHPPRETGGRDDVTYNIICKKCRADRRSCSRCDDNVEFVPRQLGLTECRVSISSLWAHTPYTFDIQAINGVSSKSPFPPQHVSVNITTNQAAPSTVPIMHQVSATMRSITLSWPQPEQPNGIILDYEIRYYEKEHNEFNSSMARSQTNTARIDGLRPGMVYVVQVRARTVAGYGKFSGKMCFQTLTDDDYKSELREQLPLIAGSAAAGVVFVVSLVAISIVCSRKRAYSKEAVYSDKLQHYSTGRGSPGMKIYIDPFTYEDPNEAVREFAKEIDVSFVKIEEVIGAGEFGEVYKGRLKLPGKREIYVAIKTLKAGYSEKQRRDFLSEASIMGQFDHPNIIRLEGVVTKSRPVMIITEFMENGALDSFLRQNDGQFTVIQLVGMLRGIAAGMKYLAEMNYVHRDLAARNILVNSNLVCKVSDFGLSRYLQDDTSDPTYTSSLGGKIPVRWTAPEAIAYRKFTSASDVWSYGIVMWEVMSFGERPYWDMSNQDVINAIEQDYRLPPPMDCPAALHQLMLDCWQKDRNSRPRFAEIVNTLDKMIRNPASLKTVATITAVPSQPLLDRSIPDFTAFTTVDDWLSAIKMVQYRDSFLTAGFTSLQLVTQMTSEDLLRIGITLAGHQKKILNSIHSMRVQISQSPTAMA
Chain of FGFR1 (P11362 whole entry, looked up): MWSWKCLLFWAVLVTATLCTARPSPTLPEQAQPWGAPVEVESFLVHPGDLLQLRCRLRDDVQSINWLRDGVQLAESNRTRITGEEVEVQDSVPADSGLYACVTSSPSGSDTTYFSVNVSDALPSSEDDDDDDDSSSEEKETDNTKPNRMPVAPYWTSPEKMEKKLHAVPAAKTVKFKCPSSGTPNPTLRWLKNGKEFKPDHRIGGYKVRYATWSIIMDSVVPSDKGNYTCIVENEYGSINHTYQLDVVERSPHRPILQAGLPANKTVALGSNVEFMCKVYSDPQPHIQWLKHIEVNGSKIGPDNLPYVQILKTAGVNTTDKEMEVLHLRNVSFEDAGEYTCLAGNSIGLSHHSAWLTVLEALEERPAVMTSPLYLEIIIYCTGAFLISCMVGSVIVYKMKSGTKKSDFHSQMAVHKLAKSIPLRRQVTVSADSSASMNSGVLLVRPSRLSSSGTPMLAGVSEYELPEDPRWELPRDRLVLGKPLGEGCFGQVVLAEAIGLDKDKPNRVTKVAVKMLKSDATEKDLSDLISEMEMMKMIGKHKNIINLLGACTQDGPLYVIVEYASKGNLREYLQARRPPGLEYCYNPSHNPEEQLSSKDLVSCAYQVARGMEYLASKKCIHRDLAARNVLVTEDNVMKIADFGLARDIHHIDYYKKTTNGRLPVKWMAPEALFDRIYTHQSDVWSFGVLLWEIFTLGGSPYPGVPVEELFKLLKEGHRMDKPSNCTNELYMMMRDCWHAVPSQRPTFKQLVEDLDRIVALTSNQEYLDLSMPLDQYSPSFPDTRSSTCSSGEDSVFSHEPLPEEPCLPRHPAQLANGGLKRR
Chain of EPHB2 (P29323 whole entry, looked up): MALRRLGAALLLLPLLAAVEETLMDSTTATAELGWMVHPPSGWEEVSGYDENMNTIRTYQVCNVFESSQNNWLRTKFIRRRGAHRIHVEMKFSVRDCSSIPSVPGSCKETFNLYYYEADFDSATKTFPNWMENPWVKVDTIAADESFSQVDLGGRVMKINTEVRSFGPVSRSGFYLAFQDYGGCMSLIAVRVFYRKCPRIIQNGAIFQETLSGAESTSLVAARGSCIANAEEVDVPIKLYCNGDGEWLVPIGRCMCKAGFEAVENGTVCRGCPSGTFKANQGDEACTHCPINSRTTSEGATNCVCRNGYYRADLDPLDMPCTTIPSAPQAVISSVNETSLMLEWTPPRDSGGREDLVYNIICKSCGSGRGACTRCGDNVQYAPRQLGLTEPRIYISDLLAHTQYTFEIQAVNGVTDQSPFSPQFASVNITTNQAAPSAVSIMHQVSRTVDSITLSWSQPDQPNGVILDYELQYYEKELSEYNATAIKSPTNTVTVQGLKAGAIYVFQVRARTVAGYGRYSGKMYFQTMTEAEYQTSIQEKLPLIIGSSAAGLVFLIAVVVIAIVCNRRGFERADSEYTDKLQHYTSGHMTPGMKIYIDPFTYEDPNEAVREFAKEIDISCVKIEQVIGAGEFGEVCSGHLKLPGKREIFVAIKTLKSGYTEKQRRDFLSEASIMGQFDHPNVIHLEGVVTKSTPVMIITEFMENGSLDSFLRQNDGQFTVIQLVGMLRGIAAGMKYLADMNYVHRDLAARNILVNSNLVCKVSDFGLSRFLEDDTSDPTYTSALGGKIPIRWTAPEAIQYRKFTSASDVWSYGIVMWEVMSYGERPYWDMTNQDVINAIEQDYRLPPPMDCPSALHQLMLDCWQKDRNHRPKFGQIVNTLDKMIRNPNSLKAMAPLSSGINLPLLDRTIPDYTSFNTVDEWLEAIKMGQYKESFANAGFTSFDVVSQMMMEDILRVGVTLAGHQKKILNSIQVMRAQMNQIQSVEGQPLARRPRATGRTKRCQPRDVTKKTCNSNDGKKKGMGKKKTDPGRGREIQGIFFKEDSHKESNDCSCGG
Chain of Hck (P08631 whole entry, looked up): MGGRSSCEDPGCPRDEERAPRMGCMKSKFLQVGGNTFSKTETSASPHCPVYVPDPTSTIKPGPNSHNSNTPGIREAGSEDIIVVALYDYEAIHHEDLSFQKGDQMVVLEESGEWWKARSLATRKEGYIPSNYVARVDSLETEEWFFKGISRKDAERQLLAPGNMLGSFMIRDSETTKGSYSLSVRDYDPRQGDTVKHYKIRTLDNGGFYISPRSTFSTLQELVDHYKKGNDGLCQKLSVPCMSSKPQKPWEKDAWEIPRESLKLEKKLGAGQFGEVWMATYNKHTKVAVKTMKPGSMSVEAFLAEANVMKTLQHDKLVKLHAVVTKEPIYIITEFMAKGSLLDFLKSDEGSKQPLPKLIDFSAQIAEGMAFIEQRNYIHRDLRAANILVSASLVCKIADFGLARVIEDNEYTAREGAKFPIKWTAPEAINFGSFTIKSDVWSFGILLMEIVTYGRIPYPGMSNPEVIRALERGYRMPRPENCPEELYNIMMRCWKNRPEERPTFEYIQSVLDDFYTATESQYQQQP
Chain of Jak2 (O60674 whole entry, looked up): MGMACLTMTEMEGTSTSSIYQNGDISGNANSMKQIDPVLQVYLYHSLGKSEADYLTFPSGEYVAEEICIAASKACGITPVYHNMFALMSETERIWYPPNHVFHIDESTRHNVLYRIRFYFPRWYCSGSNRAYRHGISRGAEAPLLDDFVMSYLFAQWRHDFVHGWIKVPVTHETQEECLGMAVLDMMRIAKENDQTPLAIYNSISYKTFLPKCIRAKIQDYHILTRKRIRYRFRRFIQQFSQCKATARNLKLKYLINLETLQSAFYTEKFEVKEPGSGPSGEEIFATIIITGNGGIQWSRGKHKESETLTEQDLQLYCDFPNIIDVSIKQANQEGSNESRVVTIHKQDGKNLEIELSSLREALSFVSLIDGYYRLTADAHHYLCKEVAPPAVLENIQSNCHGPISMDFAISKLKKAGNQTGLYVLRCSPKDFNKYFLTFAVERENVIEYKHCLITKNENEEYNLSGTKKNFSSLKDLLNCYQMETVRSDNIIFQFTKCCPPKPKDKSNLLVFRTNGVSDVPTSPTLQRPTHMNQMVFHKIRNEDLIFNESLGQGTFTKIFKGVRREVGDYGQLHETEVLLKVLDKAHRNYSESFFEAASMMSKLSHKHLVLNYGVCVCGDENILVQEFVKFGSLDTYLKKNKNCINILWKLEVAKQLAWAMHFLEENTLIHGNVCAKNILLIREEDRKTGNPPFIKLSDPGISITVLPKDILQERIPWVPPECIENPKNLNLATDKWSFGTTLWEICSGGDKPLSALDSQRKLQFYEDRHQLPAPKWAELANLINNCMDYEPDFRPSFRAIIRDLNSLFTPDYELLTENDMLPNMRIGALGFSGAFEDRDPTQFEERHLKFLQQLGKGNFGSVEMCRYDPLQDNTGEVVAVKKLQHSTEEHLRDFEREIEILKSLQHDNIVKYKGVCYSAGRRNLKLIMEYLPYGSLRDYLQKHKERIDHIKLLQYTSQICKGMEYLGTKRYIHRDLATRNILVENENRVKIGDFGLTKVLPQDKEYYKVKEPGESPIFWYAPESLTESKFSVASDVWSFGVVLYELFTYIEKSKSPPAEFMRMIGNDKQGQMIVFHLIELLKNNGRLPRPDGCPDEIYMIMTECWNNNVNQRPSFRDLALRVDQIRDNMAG

Row | SH2 binding enrichment [14] | SH2 binding enrichment [15] | SH2 binding enrichment [16] | Sequence | phosphorylation enrichment [1] | phosphorylation enrichment [2] | phosphorylation enrichment [3] | phosphorylation enrichment [4] | phosphorylation enrichment [5] | phosphorylation enrichment [6] | phosphorylation enrichment [7] | phosphorylation enrichment [8] | phosphorylation enrichment [9] | phosphorylation enrichment [10] | phosphorylation enrichment [11] | phosphorylation enrichment [12] | phosphorylation enrichment [13]
1 | 0.529 | 0.633 | 0.606 | KGPNVYKKTVN [REV3L_Y1156] | 0.546 | 0.5 | 0.414 | 0.429 | 0.448 | 0.313 | 0.391 | 0.456 | 0.362 | 0.581 | 0.307 | 0.31 | 0.492
2 | 0.54 | 0.911 | 0.606 | KGSEGYLAAIY [NF1_Y2503_T2507I] | 0.898 | 0.673 | 1.09 | 0.493 | 0.572 | 0.8 | 0.552 | 0.78 | 0.485 | 0.912 | 0.525 | 0.561 | 0.563
3 | 3.69 | 0.75 | 0.71 | KGSLPYNLILD [PKD1L2_Y406] | 0.542 | 0.687 | 0.44 | 0.488 | 0.552 | 0.438 | 0.616 | 0.695 | 0.421 | 0.713 | 0.468 | 0.418 | 0.743
4 | 0.465 | 0.643 | 0.592 | KGVDRYNPENL [EIF3K_Y21_I18V] | 0.397 | 0.428 | 0.437 | 0.311 | 0.308 | 0.415 | 0.372 | 0.502 | 0.402 | 0.466 | 0.35 | 0.648 | 0.392
5 | 0.616 | 0.854 | 0.75 | KICDWYQRQRP [KRT14_Y151_R148C] | 0.48 | 0.651 | 0.407 | 0.513 | 0.466 | 0.447 | 0.598 | 1 | 0.511 | 0.9 | 0.398 | 0.602 | 0.555
6 | 1.21 | 0.951 | 0.6 | KILGRYYETGS [PAX2_Y72] | 0.504 | 0.952 | 0.486 | 0.418 | 0.507 | 0.437 | 0.523 | 0.641 | 0.548 | 0.758 | 0.5 | 0.586 | 0.636
7 | 1.56 | 1.76 | 1.27 | KILTHYKRPHT [KMT2D_Y5349] | 0.379 | 0.439 | 0.349 | 0.445 | 0.456 | 0.393 | 0.515 | 0.495 | 0.365 | 0.621 | 0.359 | 0.42 | 0.579
8 | 0.606 | 1.37 | 0.726 | KIPGRYFETGS [PAX2_Y72_L69P_YF] | 0.521 | 0.783 | 0.396 | 0.427 | 0.471 | 0.466 | 0.531 | 0.604 | 0.464 | 1.31 | 0.382 | 0.546 | 0.633
9 | 0.512 | 0.685 | 0.778 | KIVATYRLCSE [DNAH3_Y1586] | 0.535 | 1.02 | 0.725 | 0.487 | 0.571 | 0.463 | 0.664 | 1.06 | 0.565 | 1.28 | 0.631 | 0.626 | 0.714
10 | 0.546 | 0.901 | 0.631 | KKLAEYGPQGR [CLCA1_Y147] | 0.358 | 0.441 | 0.36 | 0.316 | 0.364 | 0.408 | 0.361 | 0.428 | 0.379 | 0.519 | 0.376 | 0.366 | 0.473
11 | 1.47 | 0.792 | 1.18 | KKLEVYQSIAD [MYBPC3_Y548] | 0.798 | 0.857 | 1.08 | 0.502 | 0.499 | 0.725 | 0.75 | 0.878 | 0.488 | 0.882 | 0.557 | 0.529 | 0.55
12 | 1.12 | 1.35 | 0.954 | KKMKCYHVGKV [HARS2_Y151_R150C] | 0.408 | 0.588 | 0.383 | 0.356 | 0.395 | 0.317 | 0.552 | 0.579 | 0.423 | 0.723 | 0.444 | 0.431 | 0.627
13 | 0.644 | 1.04 | 0.787 | KKYPDYIQIAM [SGMS2_Y59] | 0.483 | 1.46 | 0.581 | 0.52 | 9.52 | 0.448 | 5.93 | 1.45 | 0.435 | 0.949 | 10 | 1.69 | 0.729
14 | 0.574 | 0.952 | 0.809 | KLLPEYPGVLS [DHFR2_Y163] | 0.458 | 0.598 | 0.491 | 0.493 | 0.379 | 0.46 | 0.564 | 0.685 | 0.385 | 0.657 | 0.349 | 0.399 | 0.497
15 | 0.881 | 0.984 | 0.865 | KLVQLYDVCTK [BTK_Y461_G462D] | 1.56 | 0.79 | 4.92 | 2.56 | 0.58 | 1.37 | 0.742 | 0.994 | 7.27 | 1.03 | 12.1 | 11.7 | 1.25
16 | 0.546 | 0.814 | 0.659 | KNDSNYVVKGN [KIT_Y823] | 0.346 | 0.482 | 0.406 | 0.323 | 0.55 | 0.37 | 0.447 | 0.539 | 0.382 | 0.635 | 0.303 | 0.318 | 0.568
